In patent US20100291074:

What was measured:
[1] = target: Aβ42 (aggregation state not stated at the place of use) (UniProt P05067)
[2] = target: Aβ (amyloid beta peptide, length and aggregation state not specified; ˜4 kDa band) (UniProt P05067)
Sequence of Aβ (amyloid beta peptide, length and aggregation state not specified; ˜4 kDa band) (P05067 whole entry, looked up, tested part not stated): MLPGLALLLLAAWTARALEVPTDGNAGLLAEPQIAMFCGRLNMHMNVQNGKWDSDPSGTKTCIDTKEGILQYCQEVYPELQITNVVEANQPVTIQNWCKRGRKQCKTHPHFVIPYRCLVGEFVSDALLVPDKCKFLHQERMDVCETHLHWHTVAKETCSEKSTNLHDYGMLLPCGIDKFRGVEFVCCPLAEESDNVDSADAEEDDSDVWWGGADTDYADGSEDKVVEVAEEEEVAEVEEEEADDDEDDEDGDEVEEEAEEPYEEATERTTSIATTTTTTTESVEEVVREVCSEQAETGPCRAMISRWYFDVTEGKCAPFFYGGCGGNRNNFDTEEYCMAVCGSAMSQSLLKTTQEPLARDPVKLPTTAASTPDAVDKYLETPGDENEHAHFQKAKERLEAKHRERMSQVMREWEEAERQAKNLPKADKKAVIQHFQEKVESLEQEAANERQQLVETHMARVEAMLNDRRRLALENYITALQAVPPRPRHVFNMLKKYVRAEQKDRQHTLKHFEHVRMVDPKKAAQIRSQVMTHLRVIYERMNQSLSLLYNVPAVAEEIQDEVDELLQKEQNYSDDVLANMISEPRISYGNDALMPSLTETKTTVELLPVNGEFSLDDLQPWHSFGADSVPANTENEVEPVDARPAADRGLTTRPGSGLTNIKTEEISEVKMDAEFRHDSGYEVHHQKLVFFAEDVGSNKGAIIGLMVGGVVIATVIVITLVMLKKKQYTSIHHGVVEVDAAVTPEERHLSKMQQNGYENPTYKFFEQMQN

Sequence of mouse CypD, endogenous, in brain mitochondria and cultured cortical neurons of nonTg and Tg mAPP mice (chain, as listed by the source): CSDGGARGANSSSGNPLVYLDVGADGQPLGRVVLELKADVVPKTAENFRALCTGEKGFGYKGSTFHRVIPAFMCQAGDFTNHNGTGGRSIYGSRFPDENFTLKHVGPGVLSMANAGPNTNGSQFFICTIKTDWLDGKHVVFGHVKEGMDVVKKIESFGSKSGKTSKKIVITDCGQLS
Sequence of Aβ42 (aggregation state not stated at the place of use) (P05067 whole entry, looked up): as the sequence (P05067 whole entry, looked up, tested part not stated) above

For “mouse CypD, endogenous, in brain mitochondria and cultured cortical neurons of nonTg and Tg mAPP mice”, the “Aβ-mediated swelling of isolated cortical mitochondria, diminished in mitochondria lacking CypD, Aβ 1.6 µM” value [1] was “˜60%” and the “cytochrome c release into the supernatant from isolated mitochondria treated with Aβ” value [2] was “increased levels of cytochrome c release into the supernatant in nonTg-derived mitochondria treated with Aβ”.
